Results on one molecule are retold here after patent publication US20260152729A1, “NOVEL NKR VARIANTS FOR INCREASED PRODUCTION OF ISOBUTANOL” (Gevo, Inc., priority 2020, published 2026).

In series [1] the test system is isobutanol producing yeast strains. The series can be described thus: Genome scale metabolic modeling (iMM904) of isobutanol yield, batch simulation. More on the design: species or system S. cerevisiae. To be noted: cells with 16 fewer copies of the enzyme, 36% less protein. As to the method:
The iMM904 metabolic reconstruction of S. cerevisiae metabolism served as the basis of the model. The model consists of a matrix of stoichiometric coefficients that represent metabolic and transport reactions encoded by 904 genes. Reactions were added as new columns to the matrix while new rows were added for additional metabolites. The native pathway for making isobutanol in the yeast mitochondria was turned off. A summary of these changes is found in Table 2 below. With these changes made, the maximum isobutanol yield from glucose in the model was approximately 0.38 g/g. If the model was altered to not produce glycerol, the yield increased to 0.41 g/g.
With more reactions than metabolites, metabolic networks have a near infinite number of solutions for any given condition. In flux balance analysis, the flux distribution is obtained by finding the solution that maximizes an objective function. […] Each flux is bounded by known limits of each reaction, though the bounds are mostly set by thermodynamic reversibility. […]
While all other reactions in the isobutanol pathway were set by reversibility only, the upper bound of flux through NKR (vnkr) was set by the kinetics of Se1 and Se2 NKR. Flux was calculated by the following equation: […]
The benefits of improving either NKR enzyme in a strain with an equal number of both was calculated to predict which enzyme was best to engineer. […]

A short description of series [2]: KARI enzyme KM assay with NADH, purified enzymes. Type of series: biochemical, Slackia exigua. The conditions noted are these: for Vmax: 0.1 mg/mL of enzyme. As to the method:
(§1) In this example, three different KARI Gen6 variant enzymes (v1, v48, and v65) and parent enzyme Se1_NKR_gen 6 were screened for their activity with NADH as cofactor. The enzymes were expressed E. coli, and resulting transformants were cultivated in shake flask fermentations as described below and samples were taken after 44h, centrifuged at 4000×g for 10 mins at 4° C. and the cell pellets were stored at −80° C. until analysis. The pellets were lysed by bead beating and the lysates were analyzed by KARI activity assay as described below using NADH and NADPH as cofactors.
(§2) KARI Enzyme Assay: The assay and no substrate control reactions were performed in triplicate for each sample. For the KM assay, the reaction samples comprised 100 mM potassium phosphate, pH 6.8 or 7, 10 mM MgCl2, 1 mM DTT, 200 μM NADH, 0-10 mM 2-acetolactate, and 0.1 mg/mL of enzyme. For the Ki assay, the reaction samples comprised 100 mM potassium phosphate, pH 6.8 or 7, 10 mM MgCl2, 1 mM DTT, 200 μM NADH, 1 mM 2-acetolactate, 0-40 mM R-DHIV, and 0.1 mg/mL of enzyme. For the no substrate controls, the 2-acetolactate was substituted with water. 10 μL of each lysate were transferred into a 96 well half area assay plate. The reaction was started with 90 μL of reaction buffer to each well using a multichannel pipette. The samples were mixed immediately. The samples were read at 340 nm every 10 seconds for 5 minutes.
(§3) The purified enzymes encoded by Se1_NKR_Gen6 (Se1), Se1_NKR_v1 (v1), Se1_NKR_v48 (v48), and Se1_NKR_v65 (v65) under two conditions: 33° C. at pH 6.8 and 30° C. at pH 7 were characterized.

Series [3] can be described thus: KARI enzyme Ki assay (product inhibition) with NADH, purified enzymes. The class given is biochemical, Slackia exigua. The conditions noted are these: for IC50 / Ki: 1 mM 2-acetolactate, 0-40 mM R-DHIV. The procedure: as §1, §2, §3
In order to determine the impact of all three parameters (kcat, KM, and Ki) to more closely determine the impact of the new variants in vivo, the catalytic efficiency for each enzyme using the KM apparent, which is equal to KM*(1+[product]/Ki), was calculated. […] At this DHIV concentration level, in vivo, at 33° C., pH 6.8, m48 would be 157%, Se1_NKR_v1 would be 139%, and Se1_NKR_v65 would be 118% improved compared to Se1_NKR. For example, in vivo, cells expressing Se1_NKR-v48, it would be expected that 16 fewer copies of the enzyme could potentially achieve 36% less protein while achieving 0.35 g/g yeast efficiency.

A further series deals with Isobutanol Production. The series can be described thus: Simple shake flask fermentation, final relative isobutanol concentration. The class given is cell-based. The conditions noted are these: enzyme on vector, final concentration. From the text:
This improvement in isobutanol production is expected to increase with multiple copies of the Se1_NKR_v1 variant enzyme incorporated into the host cell genome.

[4] abbreviates: generally, under the two conditions.

B1: V48: Se1_NKR Gen6 variant with mutations G31A, M77I, Q330N as printed in Table 5; e.g. SEQ ID NO: 92 (protein, listed as Slackia exigua)
chain: MSVKTKEKEMAVTILYEQDVDPKVIQGLKVAIIGYGSQGHAHALNLMDSGVDVRVGLREGDSDWKTAEEAGLKVTDIDTAAEEADVIMVLVPDEVQPKVYQEHIAAHLKAGNTLAFAHGFNIHYGYIVPPEDVNVIMCAPKGPGHIVRRQFTEGSGVPDLACVQQDATGNAWDIVLSYCWGVGGARSGIIKATFAEETEEDLFGEQAVLCGGLVELVKAGFETLTEAGYPPELAYFECYHEMKMIVDLMYESGIHFMNYSISNTAEYGEYYAGPKVINEQSREAMKEILKRIQDGSFAQEFVDDCNNGHKRLLEQREAINTHPIETTGARIRSMFSWIKKEDLEHHHHHH
modifications: SITE 1..350 Se1_NKR_v48 protein
By Km is commonly meant the concentration of substrate that gives half-maximal velocity. The Vmax is the rate approached at saturating substrate. As usually defined, the IC50 is the midpoint of a concentration-inhibition curve. The low end stands for higher potency, the high end for lower potency. A word on the Ki: it is a measure of affinity in units of concentration, obtained from inhibition or displacement. Low values mean tighter binding, high ones weaker binding. Turning to B1, the “expected yield (printed: yeast efficiency)” value in series [1] is recorded as 0.35 g/g. In series [2] (30° C., pH 7), the Kcat was 717 s⁻¹, the Km came out at 683 µM and the Vmax stood at 2.11 mM/s. Further, in series [2] (33° C., pH 6.8), the Kcat amounted to 647 s⁻¹, the Km is 533 µM and the maximum rate (Vmax) came to 1.90 mM/s. In series [2] (setting [4]), the “rate (kcat or VMAX), comparison of the variants” value is listed as “best (highest)”. Besides, in series [3] (1 mM DHIV, 33° C., pH 6.8), the “catalytic efficiency using KM apparent = KM*(1+[product]/Ki), compared to Se1_NKR” value came out at 157%. In series [3] (30° C., pH 7), this molecule registered a half-inhibitory concentration (IC50) of 2.45 mM and an inhibition constant Ki of 0.996 mM. Moreover, in series [3] (33° C., pH 6.8), the IC50 was found to be 3.03 mM and the inhibition constant (Ki) stood at 1.05 mM. Besides, in series [3] (both conditions (33° C., pH 6.8 and 30° C., pH 7.0)), the “catalytic efficiency (KM apparent) versus increasing concentrations of DHIV (FIG. 14A-B)” value is on record as “highest catalytic efficiencies”. For the same molecule, the “Ki for DHIV, comparison of the variants” value in series [3] (setting [4]) was “best (highest)”. Also, in the series on Isobutanol Production, the “Isobutanol Concentration relative to Se1_NKR control (WT)” value amounted to 104%.
